Non-standard residues stand in square brackets, D forms with d. Residues, ends and D or L forms follow the SMILES beside them. Dolaproine = CO[C@@H]([C@@H]1CCCN1)[C@@H](C)C(=O)O; Dil = CC[C@H](C)[C@H](NC)[C@@H](CC(=O)O)OC; NMeV = CN[C@H](C(=O)O)C(C)C

Holding throughout (type): cell-based, human
The subject of data set [1] is SKBR3 cells. Kind of data set: In-vitro cytotoxicity, CCK8 cell viability. To be noted: SKBR3, 48 h; for IC50: CCK8, mean n=3. The protocol:
(§1) In this example, human breast cancer cell line SKBR3 with high expression of HER2 and human ovarian cancer cell line SKOV3 with high expression of HER2 were chosen to evaluate the ability of the recombinant-fusion-antibody-drug conjugates to inhibit the growth of cancer cells. The recombinant-fusion-antibody-drug conjugates of different concentrations were added to a 96-well plate seeded with SKBR3 or SKOV3 cells. After treatment for 48 h, the viability of cells was calculated using a CCK8 kit.
Cell viability was measured using different concentrations of MMAF, VHH0-MMAF, or different recombinant-fusion-nanobody-drug conjugates (fused VHH1-MMAF to fused VHH26-MMAF). The half-maximal inhibitory concentration IC50 was calculated (FIGS. 14A-14C, and Table 7). FIGS. 14A, 14B and 14C respectively show the viability of SKBR3 cells treated with the recombinant-fusion-nanobody-drug conjugates, including fused VHH1-MMAF to fused VHH6-MMAF, fused VHH7-MMAF to fused VHH22-MMAF, and fused VHH23-MMAF to fused VHH26-MMAF. […] Data are expressed as the mean (n=3).
(§2) SKBR3 and SKOV3 cells were chosen to evaluate the ability of the recombinant-fusion-full-length-antibody-drug conjugates to inhibit the growth of cancer cells. […] The half-maximal inhibitory concentration IC50 was calculated.

Another data set deals with SKOV3 cells. As to the kind of experiment: In-vitro cytotoxicity, CCK8 cell viability. Conditions: SKOV3, 48 h, CCK8, mean n=3; Table 9. The protocol:
as §1, §2

A further data set relates to MDA-MB-231 cells. Kind of data set: In-vitro cytotoxicity, HER2-negative negative control. To be noted: MDA-MB-231, FIG. 15. The protocol:
as §1
In addition, in this example, the HER2-negative MDA-MB-231 cells were chosen as a negative control to compare the ability of fused VHH7-MMAF, fused VHH8-MMAF, VHH0-MMAF, VHH0, and MMAF to inhibit the growth of cancer cells.

Data set [2] relates to SKBR3 cells. As to the kind of experiment: Internalization of TAMRA-labeled recombinant fusion antibodies by flow cytometry. To be noted: 2 μM, 6 h, acid wash, compared with non-fused VHH0. On the technique in general: A flow cytometer gives signals particle by particle.
Method: The recombinant fusion antibody was labeled a fluorescent molecule and the internalization activity of the labeled antibody was evaluated by flow cytometry.
The procedure included the following steps: First, 5 mM tris (2-carboxyethyl) phosphine (TCEP; Thermo Fisher Scientific) was added to reduce the sulfhydryl group of VHH0 and fused VHH1-VHH26 respectively for approximately 30 min at room temperature, then TCEP was removed by buffer-exchanging with PBS containing 1 mM ethylenediaminetetraacetic acid (EDTA). Next, 2 eq of Maleimide-PEG3-TAMRA was added to the antibody solution and the resulting solution was incubated at 4° C. for 2 h. Lastly, the excess small molecules were removed by buffer-exchanging to obtain TAMRA-labeled VHH0 and fused VHH1-VHH26.
In this example, SKBR3, a human breast cancer cell line with a high expression level of HER2, was used as a model system. […] SKBR3 cells were incubated with TAMRA-labeled antibodies for 6 h, and subsequently washed with acid to remove bound antibodies on the cell membrane, and the fluorescence intensity was analyzed by flow cytometry.
The subject of data set [3] is SKBR3 cells. Kind of data set: Colocalization of recombinant fusion antibodies with lysosomes by confocal laser scanning microscopy. Conditions: TAMRA-labeled, 4 h, SKBR3, LysoTracker Green; compared with non-fused VHH0. From the text:
Confocal laser scanning microscope (CLSM) was used to analyze the colocalization of the recombinant fusion antibodies with the lysosome. The antibody-drug conjugate would be transported and processed in the endocytotic pathway as follows: once the antibody-drug conjugate binds to the cell-surface tumor antigen, it is internalized into endosomes, which subsequently mature and fuse with lysosomes. In the lysosomes, the acidic environment and specific proteases (e.g., cathepsin B) degrade the ADC, thus leading to the release of the drug. The free drug traverses the lysosomal membrane, reaches the cytosol and binds to its target, such as microtubule or DNA, thus ultimately triggering cell death. Therefore, the efficacy of an antibody-drug conjugate relies on its internalization and lysosomal trafficking.
In this example, SKBR3 cells were treated with TAMRA-labeled antibodies, including VHH0, fused VHH1-VHH26, mAb0, or fused mAb1-mAb3, for 4 h. The nuclei of SKBR cells were stained by Hoechst 33342 and the lysosomes of cells were stained by LysoTracker Green. The lysosome-trafficking activity of VHH0, fused VHH1-VHH26, mAb0, and fused mAb1-mAb3 was evaluated by confocal laser scanning microscopy. All images were presented under identical conditions. For quantitative analysis, the same threshold value was set for all images.

In the case of `CC[C@H](C)[C@@H]([C@@H](CC(=O)N1CCC[C@H]1[C@H](OC)[C@@H](C)C(=O)N[C@@H](Cc1ccccc1)C(=O)O)OC)N(C)C(=O)[C@@H](NC(=O)[C@@H](NC)C(C)C)C(C)C` [MMAF, monomethyl auristatin F, reference compound] (H-[NMeV]V[Dil][Dolaproine]F-OH), in the data set with SKBR3 cells [1] (CCK8), the maximal killing entry was “about 50%”. Besides, the values for the IC50 with SKBR3 cells [1] (Table 7), in the data set with SKBR3 cells [1] (Table 8) and in the data set with SKOV3 cells were 53.2 nM, 37.4 nM and 37.4 nM, respectively. Besides, the “cytotoxicity in HER2-negative cells” value with MDA-MB-231 cells is reported as “significant cell death”.

B1: Fused VHH7: anti-HER2 nanobody fused with lysosome-targeting peptide P7, SEQ ID NO: 39 (protein)
chain: EVQLVESGGGLVQAGGSLRLSCAASGITFSINTMGWYRQAPGKQRELVALISSIGDTYYADSVKGRFTISRDNAKNTVYLQMNCLKPEDTAVYYCKRFRTAAQGTDYWGQGTQVTVSSHHHHHHLPETGGGSDEDLLHI
For B1, the “internalization ability of nanobodies (mean cell fluorescence)” value with SKBR3 cells [2] is “no significant difference in the internalization ability between fused VHH7 and fused VHH8”. Further, the “colocalization of nanobodies with lysosomes / lysosomal trafficking” value with SKBR3 cells [3] was “No significant difference in lysosomal trafficking”.

B2: Fused VHH7-MMAF (conjugate)
VHH: EVQLVESGGGLVQAGGSLRLSCAASGITFSINTMGWYRQAPGKQRELVALISSIGDTYYADSVKGRFTISRDNAKNTVYLQMNCLKPEDTAVYYCKRFRTAAQGTDYWGQGTQVTVSSHHHHHHLPETGGGSDEDLLHI
For B2, half-maximal inhibition in the data set with SKBR3 cells [1] (Table 7) (IC50) was put at 0.336 nM. Moreover, in the data set with MDA-MB-231 cells, the “cytotoxicity in HER2-negative cells” value is reported as “none of the substances are cytotoxic”.

B3: Fused VHH8: anti-HER2 nanobody fused with P7, His6 tag after the peptide, SEQ ID NO: 40 (protein)
VHH: EVQLVESGGGLVQAGGSLRLSCAASGITFSINTMGWYRQAPGKQRELVALISSIGDTYYADSVKGRFTISRDNAKNTVYLQMNCLKPEDTAVYYCKRFRTAAQGTDYWGQGTQVTVSSLPETGGGSDEDLLHIHHHHHH
modifications: linker, P7 peptide, His6 tag
As to B3, in the data set with SKBR3 cells [2], the “internalization ability of nanobodies (mean cell fluorescence)” value is “no significant difference in the internalization ability between fused VHH7 and fused VHH8”. Further, the “colocalization of nanobodies with lysosomes / lysosomal trafficking” value in the data set with SKBR3 cells [3] was “No significant difference in lysosomal trafficking”.

B4: Fused VHH8-MMAF (conjugate)
VHH: EVQLVESGGGLVQAGGSLRLSCAASGITFSINTMGWYRQAPGKQRELVALISSIGDTYYADSVKGRFTISRDNAKNTVYLQMNCLKPEDTAVYYCKRFRTAAQGTDYWGQGTQVTVSSLPETGGGSDEDLLHIHHHHHH
For the molecule B4, inhibition with SKBR3 cells [1] (Table 7) was half-maximal at 0.319 nM (IC50). For the same molecule, the “cytotoxicity in HER2-negative cells” value in the data set with MDA-MB-231 cells was “none of the substances are cytotoxic”.

These data come from patent US20240424129A1, “RECOMBINANT FUSION ANTIBODY, AND ANTIBODY-DRUG CONJUGATE AND USE THEREOF” (SUN YAT-SEN UNIVERSITY, priority 2021, published 2024).
